Results on 40 sequences are retold here after the nanobody polyreactivity screen of Harvey et al. (2022).

The series in a line: yeast display, Sf9 membrane polyspecificity reagent, FACS + sequencing; frameworks hold sequencing errors. A digest of the protocol: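 Galactose-induced (36–48 hours) yeast carrying a synthetic nanobody display library were exposed to 10% biotinylated, detergent-solubilized Sf9 membrane reagent at 4 °C for 1 hour. FACS followed streptavidin microbead enrichment, using low and high (top ~1%) gates for expression (anti-HA) and reagent binding (streptavidin). Colony PCR, MiSeq 2 × 250 sequencing and CDR-length filtering followed. Labels for polyreactivity reflect the gate of origin.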
Take “QVQLVESGGGLVQAGGSLRLICAASGRIFHYYMGWYRQAPGKEMELVAVISSGDGTYYADSVKGRFTISRDNAKYTFYLQMNSLKPEDTAVYYWAADAPREYDDHYKYDDDYCGQGTQVTVSS”: the “polyreactivity (PSR sort gate)” value is “low polyreactivity”.

Turning to “QDQLVESGGGLVQAGGSLRLSCAASGSTRIYAMGWYRRAPRKEMELVAAISWTGGRTYYADSVKGRFTISRDNAKIIVYLQMNSLKPEYTAVYYCAAQYFTFYWKLDYWGQGTQVTVSS”, the “polyreactivity (PSR sort gate)” value is “high polyreactivity”.

“HVQLVESGGGLVQAGGSLRLSCAASGFTVYRYTLGWYRQAPGKERELVAAITWSGGNTYYADSVKGRFTISRDNAKNTVYLQMNSLKPEDTAVYYCAAYKPYSKSNYRGQGTQVTVSS”: the “polyreactivity (PSR sort gate)” value is “high polyreactivity”.

Turning to “QVQLVESGGGLVQAGGSLRLSWAASGSIFTLNAMGWYRQAPGKERELVAAIRWSGGSTYYADSVKGRFTISRDNAKNTGYLQRNRLKPEDTAVYYCAAKYPSDYYSPGFKYWGQGTQVTVSS”, the “polyreactivity (PSR sort gate)” value is listed as “high polyreactivity”.

In the case of “QVQLVESGGGLVQAGGSLRLSCPASGIIFYRYSMGWKRQAPGKERQFVAAISRGGGSTYYADSVKGRFTISRDNAKNTFYLQMNSLKPEDTAVYYCNARDTRVTVDQYSIKRMDYWGKGTQVTVSS”, the “polyreactivity (PSR sort gate)” value is recorded as “high polyreactivity”.

As for “QVQLVESGGGLVQAGGSLRLSCAASGSTFSSLIMGWYRQAPGKERELVAAISRSGGRTYYADSVKGRFTISRDNAKNTVYLQMNSLKPEDTAVYYCAAPWFRDTRGYSLYDYWGQGTQVTVSS”, the “polyreactivity (PSR sort gate)” value was “high polyreactivity”.

Turning to “QVQLVESGGGIVQAGGSLRLSCAASGFIFDVYAMGWYRQAPGKERELVAAISRSGGSTYYADSVKGRFTISRDNAKNTVYLQMNSLKPEDTAVYYCATDLLNNVDYDYWGQGTQVTVSS”, the “polyreactivity (PSR sort gate)” value is “low polyreactivity”.

On to “QVQLVESGGGLVQAGGSLRLSCAASGLTFYIYAMGWYSQAPGKERELVAAVSNGGGNTYYADSVKGRCTISRDNAKNTVYLQMNSLKPEDTAVYYCAAKNDYVYPINPLYYYWGQGTQVTVSS”, for which the “polyreactivity (PSR sort gate)” value was “high polyreactivity”.

“QVQLVESGGGLVQAGGSLRLSCAASGSTFQLYAMGWYRQAPGKERELVATISWRGGSTYYADSVKGRFTISRDNAKNTVYLQMNSLKPEDTAVYYCAADFYLRGRYYSRYGSWGQGTQVTVSS”: the “polyreactivity (PSR sort gate)” value is “high polyreactivity”.

On to “QVQLVESGGGLVQAGGSLRLSCAASGSIFTYYAIGWYRQAPWKERELVAAISWSDGNTYYADSVKGRFTISRDNAKNTVYLQMNSLKPEDSAVYYCAAEYYVSRYWYPYDFYIMNYWGQGTQVTVSS”, for which the “polyreactivity (PSR sort gate)” value is listed as “high polyreactivity”.

“QVQLVESGGGLVQAGGSLRLSCAASGRTFVKYAMGWYRQAPGKERELVAAISWSGGSTYYADSVKGRFTISRDNAKNTVYLQMNSLKPEDTAVYYCNTAQRYRVYRYDYWGQGTQVTVSS”: the “polyreactivity (PSR sort gate)” value is “high polyreactivity”.

Turning to “PVQLVESGGGVVQAGGSLRLSCAASGSTFEYYAMGWYRQAPGKERELVAAITRRGGSTYSADSVKGRFTISRDNAKNTVYVQMNSLKPEDTAVYYCAAKGFPRSGYPYQAQHMYYWGQGTQVTVSS”, the “polyreactivity (PSR sort gate)” value is “low polyreactivity”.

Take “QVQLVESGGGLVQAGGRLRLSCAASGRTFYKNARGWYREAPGKERELVAAITNRGGSTYYADSVKGRFTISRDNAKNTVYLQMNSLKPEDTAVYYCNARRGSTGNVARWHYDYWGQGTQVTVSS”: the “polyreactivity (PSR sort gate)” value is listed as “low polyreactivity”.

Take “QVQLVESGGGLVQAGGSLRISCAASGSIFGVYAMGWYRQAPGKERELVAAIRSGGRTYYADSVKGRFTISRDNAKNTVYLQMNSLKPEDTAVYYCNAAFSSRVGRVQFYDYDYWGQGTQVTVSW”: the “polyreactivity (PSR sort gate)” value was “high polyreactivity”.

Consider “QVQLVESGGGLVQAGGSLRLSCAASGRTFASYAMGWYRQAPAKDRELVAAITSGGSTKYADSVKGRFTISRDNAKNSVYFQMNSLTPEDTAVYYCWRYVFHLSNYYYWGQGTQVTVSS”, for which the “polyreactivity (PSR sort gate)” value was “high polyreactivity”.

“QVQLVESGGGLVQPGGSLRLSCAAYGLTFYGYTMGWYRQAPGKERELVASITRSGGSTYADSVKGRFTISRDNAKNTVYLQMNSLKPEDTAVFYCAAVYRARGYYYWGQGTQVTVSS”: the “polyreactivity (PSR sort gate)” value is recorded as “high polyreactivity”.

Take “QVQLVESGGGLVQAGGSLRLSCAASGFIFNKYAMGWYRQAPGKERELVATIRRDGSTNYADSVKGRFTISRDNAKNTVYLQMNSLKPEDTAVYYCAVRPYYWSRDYYWGQGTQVTVSS”: the “polyreactivity (PSR sort gate)” value is listed as “high polyreactivity”.

On to “QVQLVESGGGLVQAGGSLRLSCAASGFTFWYYAMGWYRQAPGKERELVAGIDSGGSTYYADSVKGRFTISRDNAKNTVYFQMNSLKPEETAVYYCAARPDQGLAYSPLPWYNYWGQGTQVTVSS”, for which the “polyreactivity (PSR sort gate)” value is “low polyreactivity”.

In the case of “QVQLVESGGGLVQAGGSLRLSCAASGFIFYRYAMVWYRQAPGKEREFVARISANGGRTYYADSVKGRFTISRDNAKNTVYLQMNSLKPEDTAVYYCNAGRYATPYNYWGQGTQVTVSS”, the “polyreactivity (PSR sort gate)” value is listed as “high polyreactivity”.

With “QVQLVESGGGLVQAGGSLRLSCAASGRTFPAYTMGWYRQAPGKERELVAAINWSGGSTYYADSVKGRFTISRDNAKNTVYLQMNSLKPEDTAVYYCARTSRYYGFRSYGTLDYWGLGTQVTVSS”, the “polyreactivity (PSR sort gate)” value is reported as “high polyreactivity”.

In the case of “QVQLVESGGGLVQAGGSLRLSCAASGSTFRYNPMGWYRQAPGNERELVAAISSGGYTNYADSVKGRFTISRDNAKNTVYLQMNSLKPEDTAVYYCAARYYPWKVNRFSYWYDYWGQGTLVTVSS”, the “polyreactivity (PSR sort gate)” value was “high polyreactivity”.

Regarding “QVQLVVSGGGLVQAGGSLRLSCAASGSIFSRYTMGWYRVAPGKERELVAAITASGTRTYYADSVKGRFTISRDNAKNTVYLQMNSLKPEDTAVYYCNVVRGSRDVTYGYNYWGQGTQVTVSS”, the “polyreactivity (PSR sort gate)” value is reported as “high polyreactivity”.

As for “QVQLVESGGGLVQAGGSLRLICAASGFIFGYNARGWYRQAPGKERELVAAINWSGGRTYYADSVKGRFTISRDNAKKTVYLQMNRLKPEDTAVDYCNGDGSRRYNYWGQGTQVTVSS”, the “polyreactivity (PSR sort gate)” value is recorded as “low polyreactivity”.

Turning to “QVQLVESGGGLVQAGGSLRLSCAASGFIFTQNAMGWYRQAPGKERELVARISRRGGSTYYADSVKGRFTISRDNAKNTVYLQMNSLKPEDTAVYYCAATINYPGPTRFVSGNHDYWGQGTQVTVSS”, the “polyreactivity (PSR sort gate)” value is given as “high polyreactivity”.

As to “QVQLVESGGGLVQAGGSLRLSCAASGSTFTWYAMGWYRQAPGKERELVARINFSGGSTYADSVKGRFTISRDNAKNTVYLQMNSLKPEDTAVYYCAAVYPGRKARRKYDYWGQGTQVTVSS”, the “polyreactivity (PSR sort gate)” value is given as “low polyreactivity”.

Take “QVQLVESGGGLVQAGGSLRLSCAASVLIFGPYTMGWYRQAPGKEREFDAAINRSGGSTYYADSVKGRFTISRDNAKNTVYLQMNSLKPEDTAVYYCNAEQYGKQWYSGYNYDYWGQGTQVTVSS”: the “polyreactivity (PSR sort gate)” value is recorded as “high polyreactivity”.

On to “QVQLVESGGGLVQAGGSLRLSCAASGNIFAYYAMGWYRQAPGKERELVAAITDSGGNTFYADSVKGRFTISRDNAKNTVYLQMNSLKPEDTAVYYCAVRHRYTRAYWGRDYWGQGTQVTVSS”, for which the “polyreactivity (PSR sort gate)” value is “low polyreactivity”.

Take “QVQLVESGGGLVQAGGSLRLSCAASGFIFYSNAMGWYRQEPGKERELLADINRGGTSTYYADSVKGRFTISRDNAKNTVYLQMNSLKPEDTAVYYCNAGLRYRSRLWNIYWYDYWGQGTQVTVSS”: the “polyreactivity (PSR sort gate)” value is listed as “high polyreactivity”.

In the case of “QDQLVESGGGLVPAGGSLRLSCAASGGILPQYAMGWYRQAPGKERELVAAITRGGARTYYADSVKGRFTISRDNAKNTVYLQMTSLKPEDTAVYYCAARGPGYQLYDYWGQGTQVTVSS”, the “polyreactivity (PSR sort gate)” value was “high polyreactivity”.

“QVHLVESGGGLVQAGGSLRLSCAATGYIFDSYAMGWYRPAPGKEREFVAAISGSDGSTYYADSVKGRFTISRDNAKNTVYLQMNSLKPEDTAVYYCAADPYYGEMEYWGQGTQVTVSS”: the “polyreactivity (PSR sort gate)” value is given as “low polyreactivity”.

Take “QVQLVESGGGLVQAGGSLRLSCAASGSTFIFYAMGWYRQAPGKERELVASITSRAASTYYADSVKGRFTISRDIAKNTVYLQMNSLKPEDTAVYYCAATFSYTLFWWSSFLLYDYWGQGTQVTVSS”: the “polyreactivity (PSR sort gate)” value is “low polyreactivity”.

On to “QVQLVESGGGLVQAGGSLRLICAASGRTFVYNTMGWYRQAPGKERELVAAITDRGTSTYYADSVKGRFTISRDNAKNPVYLLLNSLNPEDTAVYYWAKDWLVTEFDYWGQGTQVTVSS”, for which the “polyreactivity (PSR sort gate)” value is “low polyreactivity”.

In the case of “QVQLVESGGGLVQAGGSLRLSCAASGSTLVAYAMGWYRQAPGKERELVAAISRSGGNTYYADSVKGRFTISRDNAKNTVYFQMISLKPEDTAVYYCAAVRLYRYDYWGQCTQVTVSS”, the “polyreactivity (PSR sort gate)” value is on record as “low polyreactivity”.

In the case of “QVQLVESGGGLVQAGGSLRLSCAASGRTFVYNAMGWYRQEPGKERELVAAITWNGGSKYYADSVKGRFTISRDNAKITVYLQMNSLKPEDTAVYYCNRDVRYVGPSGFDYWGQGTQVTVSS”, the “polyreactivity (PSR sort gate)” value is reported as “high polyreactivity”.

Consider “QVQLVESGGGLVQAGGSLRLICAASGRIFGPYAMGWYRQAPGKERELVASISYSGGSTYYADSVKGRFTISRDNAKNTVYLQMNSLKPDDTAVYYCAKGGYWRGYNYWGQGTQVTVSS”, for which the “polyreactivity (PSR sort gate)” value was “low polyreactivity”.

For the sequence “QVQLVESGGGLVQAGGTLRLSCAASGFIFGPNAMGWYRQAPGKERELVAAISWIGSSTYYADSVKGRFTISRDNAKNTVYLEMNSLKPEDTAVYYCNADLWVPSYLWGDYWGQGTQVTVSS”, the “polyreactivity (PSR sort gate)” value is recorded as “low polyreactivity”.

“QVQLVESGGGLVQAGGSLRLSCAASGSIFRRYAMGWYRQAPGKERELVAAITNGGGSTYYADSVKGRFTISRDNAKNTVYLQMNSLKPEDSAVYYCARRLASNYGAYDYWGQGTQVTVSS”: the “polyreactivity (PSR sort gate)” value is “low polyreactivity”.

Take “QVQLVDSGGGLVQAGGSLRLSCAASGRTLSFYGMGWYRQAPGKERELVAAISSSGSRTYYADSVKGRFTISRDNAKNTVYLQMNSLKPEDTAVYYCNALRIYHHYEYDYWGQGTQVTVSS”: the “polyreactivity (PSR sort gate)” value is listed as “high polyreactivity”.

“QVQLVESGGGLVQAGGSLRVSCAASGSIFSLYTMGWYRQAPGKERELVAAISGSGGRTYYADSVKGRFTISRDNAKNTVYLQMNSLKPEDTAVYYCAADTRSYTYYYWGQGTQVTVSS”: the “polyreactivity (PSR sort gate)” value is recorded as “high polyreactivity”.

Regarding “QVQLVESGGGLVQAGGNLRLSCAASGSIFAWYVMGWYRQPPGKERELVAGIDTSGGSTFYADSVKGRFTISRDNAKNTVYLQMNSLKPEDTAVYYCAADTWYRGPWEFDYWGQGTQVTVSS”, the “polyreactivity (PSR sort gate)” value was “low polyreactivity”.
